B1: General negative regulator of transcription subunit 4 (Saccharomyces cerevisiae), P34909 (parent)
chain: MMNPHVQENLQAIHNALSNFDTSFLSEDEEDYCPLCIEPMDITDKNFFPCPCGYQICQFCYNNIRQNPELNGRCPACRRKYDDENVRYVTLSPEELKMERAKLARKEKERKHREKERKENEYTNRKHLSGTRVIQKNLVYVVGINPPVPYEEVAPTLKSEKYFGQYGKINKIVVNRKTPHSNNTTSEHYHHHSPGYGVYITFGSKDDAARCIAQVDGTYMDGRLIKAAYGTTKYCSSYLRGLPCPNPNCMFLHEPGEEADSFNKRELHNKQQAQQQSGGTAFTRSGIHNNISTSTAGSNTNLLSENFTGTPSPAAMRAQLHHDSHTNAGTPVLTPAPVPAGSNPWGVTQSATPVTSINLSKNSSSINLPTLNDSLGHHTTPTTENTITSTTTTTNTNATSHSHGSKKKQSLAAEEYKDPYDALGNAVDFLDARLHSLSNYQKRPISIKSNIIDEETYKKYPSLFSWDKIEASKKSDNTLANKLVEILAIKPIDYTASVVQFLQSVNVGVNDNITITDNTKTPTQPIRLQTVSQQIQPPLNVSTPPPGIFGPQHKVPIQQQQMGDTSSRNSSDLLNQLINGRKIIAGN

Variants of: B1
Conditions: with not1_yeast CDC39, P25655
Chain of not1_yeast CDC39, P25655 (P25655 whole entry): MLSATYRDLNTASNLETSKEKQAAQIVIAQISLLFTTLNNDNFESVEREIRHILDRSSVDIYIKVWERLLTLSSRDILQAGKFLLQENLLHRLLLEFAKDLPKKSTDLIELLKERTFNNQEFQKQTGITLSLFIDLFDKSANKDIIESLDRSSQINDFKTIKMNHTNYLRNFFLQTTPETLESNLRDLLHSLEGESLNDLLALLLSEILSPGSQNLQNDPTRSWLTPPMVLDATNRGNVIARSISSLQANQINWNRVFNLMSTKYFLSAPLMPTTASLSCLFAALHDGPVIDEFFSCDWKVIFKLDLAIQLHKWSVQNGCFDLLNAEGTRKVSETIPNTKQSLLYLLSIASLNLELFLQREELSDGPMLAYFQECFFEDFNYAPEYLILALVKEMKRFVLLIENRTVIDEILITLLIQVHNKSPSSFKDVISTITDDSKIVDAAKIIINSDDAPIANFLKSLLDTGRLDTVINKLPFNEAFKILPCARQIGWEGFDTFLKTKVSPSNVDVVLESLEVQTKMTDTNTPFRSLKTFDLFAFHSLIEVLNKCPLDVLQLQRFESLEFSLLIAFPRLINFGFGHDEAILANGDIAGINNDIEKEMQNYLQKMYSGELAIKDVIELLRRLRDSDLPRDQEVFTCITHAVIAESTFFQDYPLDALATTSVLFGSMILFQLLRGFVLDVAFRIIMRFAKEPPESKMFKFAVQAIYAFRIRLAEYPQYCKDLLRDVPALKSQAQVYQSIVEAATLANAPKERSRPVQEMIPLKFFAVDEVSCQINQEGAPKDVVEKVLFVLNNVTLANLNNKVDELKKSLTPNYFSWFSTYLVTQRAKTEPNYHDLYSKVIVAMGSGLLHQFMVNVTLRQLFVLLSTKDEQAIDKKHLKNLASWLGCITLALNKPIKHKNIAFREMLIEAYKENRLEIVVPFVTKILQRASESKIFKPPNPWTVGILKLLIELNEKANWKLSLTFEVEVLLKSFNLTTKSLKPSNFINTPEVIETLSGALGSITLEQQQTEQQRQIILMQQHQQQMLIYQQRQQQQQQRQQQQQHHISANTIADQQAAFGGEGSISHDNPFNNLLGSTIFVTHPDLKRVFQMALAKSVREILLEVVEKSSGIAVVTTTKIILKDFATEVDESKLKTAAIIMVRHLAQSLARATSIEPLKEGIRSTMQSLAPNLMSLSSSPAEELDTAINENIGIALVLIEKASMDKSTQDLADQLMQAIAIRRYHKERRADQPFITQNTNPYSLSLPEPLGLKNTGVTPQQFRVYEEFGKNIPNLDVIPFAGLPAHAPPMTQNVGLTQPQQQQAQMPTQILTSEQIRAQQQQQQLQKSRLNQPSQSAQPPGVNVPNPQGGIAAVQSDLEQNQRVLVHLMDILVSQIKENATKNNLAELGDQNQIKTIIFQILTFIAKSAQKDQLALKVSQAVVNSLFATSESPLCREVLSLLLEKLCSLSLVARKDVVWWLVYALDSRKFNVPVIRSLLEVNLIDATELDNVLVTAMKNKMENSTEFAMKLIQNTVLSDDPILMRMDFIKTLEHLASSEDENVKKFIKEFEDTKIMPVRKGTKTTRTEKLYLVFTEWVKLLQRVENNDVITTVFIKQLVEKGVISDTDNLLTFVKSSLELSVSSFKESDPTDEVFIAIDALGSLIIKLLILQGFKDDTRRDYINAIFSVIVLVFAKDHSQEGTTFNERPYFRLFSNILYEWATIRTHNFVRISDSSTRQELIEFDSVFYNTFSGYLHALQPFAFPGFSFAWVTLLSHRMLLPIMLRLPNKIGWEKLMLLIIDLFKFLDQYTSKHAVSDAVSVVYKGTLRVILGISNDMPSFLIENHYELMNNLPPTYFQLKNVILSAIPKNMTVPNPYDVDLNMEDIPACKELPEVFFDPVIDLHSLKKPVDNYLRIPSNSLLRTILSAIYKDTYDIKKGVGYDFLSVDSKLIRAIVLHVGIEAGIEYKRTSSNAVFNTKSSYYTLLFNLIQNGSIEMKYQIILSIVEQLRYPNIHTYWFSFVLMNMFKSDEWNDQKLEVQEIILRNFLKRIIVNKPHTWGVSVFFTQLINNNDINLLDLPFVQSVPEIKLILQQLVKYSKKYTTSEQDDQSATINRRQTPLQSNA

Variant | effect of a mutation on the interaction
MMNPHVQENLQAIHNALSNFDTSFLSEDEEDYCPLCIEPMDITDKNFFPCPCGYQICQFCYNNIRQNPELNGRCPACRRKYDDENVRYVTLSPEELKMERAKLARKEKERKHREKERKENEYTNRKHLSGTRVIQKNLVYVVGINPPVPYEEVAPTLKSEKYFGQYGKINKIVVNRKTPHSNNTTSEHYHHHSPGYGVYITFGSKDDAARCIAQVDGTYMDGRLIKAAYGTTKYCSSYLRGLPCPNPNCMFLHEPGEEADSFNKRELHNKQQAQQQSGGTAFTRSGIHNNISTSTAGSNTNLLSENFTGTPSPAAMRAQLHHDSHTNAGTPVLTPAPVPAGSNPWGVTQSATPVTSINLSKNSSSINLPTLNDSLGHHTTPTTENTITSTTTTTNTNATSHSHGSKKKQSLAAEEYKDPYDALGNAVDFLDARLHSLSNYQKRPISIKSNIIDEETYKKYPSLESEDKIEASKKSDNTLANKLVEILAIKPIDYTASVVQFLQSVNVGVNDNITITDNTKTPTQPIRLQTVSQQIQPPLNVSTPPPGIFGPQHKVPIQQQQMGDTSSRNSSDLLNQLINGRKIIAGN [F464E;W466E] | disrupting interaction
MMNPHVQENLQAIHNALSNFDTSFLSEDEEDYCPLCIEPMDITDKNFFPCPCGYQICQFCYNNIRQNPELNGRCPACRRKYDDENVRYVTLSPEELKMERAKLARKEKERKHREKERKENEYTNRKHLSGTRVIQKNLVYVVGINPPVPYEEVAPTLKSEKYFGQYGKINKIVVNRKTPHSNNTTSEHYHHHSPGYGVYITFGSKDDAARCIAQVDGTYMDGRLIKAAYGTTKYCSSYLRGLPCPNPNCMFLHEPGEEADSFNKRELHNKQQAQQQSGGTAFTRSGIHNNISTSTAGSNTNLLSENFTGTPSPAAMRAQLHHDSHTNAGTPVLTPAPVPAGSNPWGVTQSATPVTSINLSKNSSSINLPTLNDSLGHHTTPTTENTITSTTTTTNTNATSHSHGSKKKQSLAAEEYKDPYDALGNAVDFLDARLHSLSNYQKRPISIKSNIIDEETYKKYPSEESWDKIEASKKSDNTLANKLVEILAIKPIDYTASVVQFLQSVNVGVNDNITITDNTKTPTQPIRLQTVSQQIQPPLNVSTPPPGIFGPQHKVPIQQQQMGDTSSRNSSDLLNQLINGRKIIAGN [L463E;F464E] | disrupting interaction
